These results are taken from paper PMC6495647.

Experiment [1] addresses MucA’ protein (plasmid pKM101 (host species not stated)). Kind of experiment: SEC; Superdex 75 XK 16/60, 20 mM HEPES pH 7.4, 10% glycerol, 150 mM NaCl, 0.1 mM EDTA, 1 mM DTT; 1 ml of 2.5 mg/ml MucA’ applied; calibrated with protein standards. (Size exclusion chromatography separates by hydrodynamic size, large species first.)
In experiment [2] the target is RecA (UniProt P0A7G6). Kind of experiment: SPR; another set of experiments; calculated KD for MucB and RecA; details not told.
Experiment [3] deals with β-subunit of DNA polymerase III holoenzyme of E. coli (E. coli) (UniProt P0A988). Kind of experiment: SPR; BIAcore 2000, kinetic analysis at lower ligand densities (577 RU of immobilized β, 1036 RU of immobilized MucA’ on CM5); MucB in the mobile phase; BSA reference cell; apparent constants; data not shown. (In general: In SPR one partner is held on a chip, and binding of the other changes the refractive index at the surface.)

In general, stoichiometry N refers to a count of units in the complex or per binding partner. One may read the koff as the rate constant with which the complex falls apart. What is called kon is the second-order rate constant of association.

β-subunit of DNA polymerase III holoenzyme of E. coli (E. coli), sequence (P0A988 whole entry): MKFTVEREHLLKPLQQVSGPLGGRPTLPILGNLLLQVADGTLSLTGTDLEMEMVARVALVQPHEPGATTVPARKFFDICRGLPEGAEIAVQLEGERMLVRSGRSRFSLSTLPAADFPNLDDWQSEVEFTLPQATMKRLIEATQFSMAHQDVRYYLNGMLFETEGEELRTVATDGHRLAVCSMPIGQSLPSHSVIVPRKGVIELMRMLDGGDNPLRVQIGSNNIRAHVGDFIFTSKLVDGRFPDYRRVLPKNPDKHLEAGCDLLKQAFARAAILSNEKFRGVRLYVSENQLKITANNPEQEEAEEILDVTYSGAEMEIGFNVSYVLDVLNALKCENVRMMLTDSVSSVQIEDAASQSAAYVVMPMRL
RecA, sequence (P0A7G6 whole entry): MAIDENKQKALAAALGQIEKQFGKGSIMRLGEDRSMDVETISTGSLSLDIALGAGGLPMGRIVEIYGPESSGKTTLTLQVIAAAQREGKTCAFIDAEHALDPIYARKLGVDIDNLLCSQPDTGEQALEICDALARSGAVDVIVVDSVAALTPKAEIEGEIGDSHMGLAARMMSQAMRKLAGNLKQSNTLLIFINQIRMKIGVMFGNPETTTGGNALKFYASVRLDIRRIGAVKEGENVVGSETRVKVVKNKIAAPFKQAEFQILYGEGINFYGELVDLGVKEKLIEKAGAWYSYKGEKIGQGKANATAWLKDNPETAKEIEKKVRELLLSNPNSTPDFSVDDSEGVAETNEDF

In the case of MucA’ protein (natural protein), the stoichiometry N in experiment [1] is 2.

For the substance “MucB protein (from UniProt P07375 1-420) (enzyme)”, the Kd in experiment [2] was 2.41 nM. In experiment [3], the Kd was 0.31 nM, the amount bound (RU) amounted to 349 RU, the koff was 1.2e-05 s⁻¹ and the kon amounted to 38700 M⁻¹ s⁻¹.
